Results published in patent US20240301052A1 (LANOVA MEDICINES DEVELOPMENT, published 2024).
Where “and” joins values, the source holds several entries; their conditions need not be identical. Identical values can stand only once.

Columns and labels:
[1] = target: T1, human SLC34A2 (human, UniProt O95436 1-690); experiment: FACS, OVCAR3 cells
T1 sequence (looked up): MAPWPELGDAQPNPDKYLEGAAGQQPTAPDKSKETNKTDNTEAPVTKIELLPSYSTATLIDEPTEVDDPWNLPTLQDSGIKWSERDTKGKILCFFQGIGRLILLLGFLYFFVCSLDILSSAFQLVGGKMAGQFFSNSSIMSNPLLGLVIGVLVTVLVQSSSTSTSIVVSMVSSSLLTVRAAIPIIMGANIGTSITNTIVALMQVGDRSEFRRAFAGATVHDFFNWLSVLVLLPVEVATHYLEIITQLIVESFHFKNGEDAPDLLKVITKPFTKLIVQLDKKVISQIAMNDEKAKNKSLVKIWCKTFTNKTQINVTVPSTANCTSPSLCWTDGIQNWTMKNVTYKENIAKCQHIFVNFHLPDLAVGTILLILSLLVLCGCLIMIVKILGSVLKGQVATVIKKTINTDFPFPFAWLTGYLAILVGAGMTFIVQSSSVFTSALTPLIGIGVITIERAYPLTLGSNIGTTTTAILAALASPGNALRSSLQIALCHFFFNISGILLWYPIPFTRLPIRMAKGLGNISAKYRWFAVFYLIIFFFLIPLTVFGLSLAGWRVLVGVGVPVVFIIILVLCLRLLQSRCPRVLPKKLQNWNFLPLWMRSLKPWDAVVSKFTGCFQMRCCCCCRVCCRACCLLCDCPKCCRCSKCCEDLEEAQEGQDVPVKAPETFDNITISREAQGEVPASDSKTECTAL

[2] = target: T1, human SLC34A2; experiment: FACS, OVCAR3 cells; remark: listed apart in the source
[3] = target: T1, human SLC34A2; experiment: FACS, RMG-1 cells
[4] = target: T1, human SLC34A2; experiment: FACS, OVCAR3 cells; remark: listed apart in the source

- EC50 [1]: 6.82 nM
- EC50 [2]: 10.3 nM
- Top [2]: 22500 MFI
- EC50 [3]: 4.87 nM
- Top (MFI) [3]: 9110 MFI
- EC50 [4]: 4.31 nM and 3.99 nM
- Top (MFI) [4]: 40200 MFI and 26700 MFI
B1: XMT-1536 (antibody, INN chains, looked up, V domains shown)
VH: QVQLVQSGAEVVKPGASVKMSCKASGYTFTGYNIHWVKQAPGQGLEWIGAIYPGNGDTSYKQKFRGRATLTADTSTSTVYMELSSLRSEDSAVYYCARGETARATFAYWGQGTLVTVSS
VL: DIQMTQSPSSLSASVGDRVTITCSASQDIGNFLNWYQQKPGKTVKVLIYYTSSLYSGVPSRFSGSGSGTDYTLTISSLQPEDFATYYCQQYSKLPLTFGQGTKLELK
modifications: rilsodotin auristatin payload
